Measurements from PMC8908544 (Structure (London, England : 1993), 2022).

B1: NB1C6 (VHH)
VHH: QVQLQESGGGSVQAGGRLRLSCAASGDTYSSYCMGWFRQAPGKEREGVAAIYIGGDNTYYADSAKGRFTISQDYDKNTAYLQMNSLKSEDTAMYYCAAELFCPWPDIGTMSPAEYKYWGQGTQVTVSS
B2: format II: bi-paratopic and multivalent nanobody NB1A7-(GGGGS)4-NB1B11-Fc (bispecific antibody)
chain: QVQLQESGGGSVQAGGSLRLSCAASGYTFSSYCLGWFRQAPGKEREGVAAIDSDGSTSYADSVKGRFTISRDNAKNTLYLQMNSLKPEDTAMYYCAAEGGPSLSYCTGGYGFLLSGLMYNSWGQGTQVTVSSGGGGSGGGGSGGGGSGGGGSQVQLQESGGGSVQAGGSLRLSCAASGYTVSVGCMAWFRQAPGKEREGVAGIDASGITKYSDSVKGRFTISKDNAKNALDLQMNGLKPEDTAMYHCAAGLVRGSCTDVLDHPSYLGVWGQGTQVTVSSGGGGS
B3: NB1A7 (VHH)
VHH: QVQLQESGGGSVQAGGSLRLSCAASGYTFSSYCLGWFRQAPGKEREGVAAIDSDGSTSYADSVKGRFTISRDNAKNTLYLQMNSLKPEDTAMYYCAAEGGPSLSYCTGGYGFLLSGLMYNSWGQGTQVTVSS
B4: NB1B11 (VHH)
VHH: QVQLQESGGGSVQAGGSLRLSCAASGYTVSVGCMAWFRQAPGKEREGVAGIDASGITKYSDSVKGRFTISKDNAKNALDLQMNGLKPEDTAMYHCAAGLVRGSCTDVLDHPSYLGVWGQGTQVTVSS

Legend:
[1] = target: T1, receptor binding domain (RBD) of SARS-CoV-2 spike protein (SARS-CoV-2, UniProt P0DTC2 333-523); assay: BLI
[2] = target: T1, receptor binding domain (RBD) of …; assay: ELISA
SARS-CoV RBD (306-527) = SARS-CoV RBD (306-527) (SARS-CoV, UniProt P59594 306-527); assay: BLI

Binder	Kd [1] [nM]	IC50 [2] [nM]	Kd (SARS-CoV RBD (306-527)) [nM]
B1	5.07 ± 0.05		
B2	< 0.001	37.5	
B3			471
B4	6.76 ± 0.027	709	
